Assay results reported in patent US5817785.

Legend:
[1] = molecular target: T1, HIV-1 Rev protein (HIV-1) (UniProt P04618); assay: filter; settings: background affinity of starting pool
T1 sequence: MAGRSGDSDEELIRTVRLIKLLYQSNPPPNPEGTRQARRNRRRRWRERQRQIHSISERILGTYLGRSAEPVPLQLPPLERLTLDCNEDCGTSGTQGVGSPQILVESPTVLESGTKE

[2] = molecular target: HIV-1 reverse transcriptase (HIV-RT) (HIV-1) (UniProt P04585+P04585); assay: filter

CCCGGAUCCUCUUUACCUCUGUGUGAGAUACAGAGUCCACAAACGUGUUCUCAAUGCACCCGGUCGGAAGGCCAUCAAUAGUCCC
Kd [1]: 100 nM

GGUCCGAAGUGCAACGGGAAAAUGCACUNNNNGUGARNNNNUGNUCCNNNN [extended HIV-RT ligands, Extension Motif I consensus]
binding signal (fold higher affinity than ligand B) [2]: > 10

GGUCCGAAGUGCAACGGGAAAAUGCACUNNNNNNAGNNNNNNUGNUGNNNNNNN [extended HIV-RT ligands, Extension Motif II consensus]
binding signal (fold higher affinity than ligand B) [2]: > 10
